Results from US7012060B1, “TNF receptor and steroid hormone in a combined therapy” (priority 1995, dated 2006).
Marks after values point to notes of the source that are not given here.

Tests used:
septic shock = conditions: urinary and recombinant TBP-1 (CHO and E. Coli); cited from earlier work
[1] = test system: septic shock induced by LPS + D-Galactosamine, in mice; assay: LPS+D-Galactosamine-induced septic shock model; assay type: in vivo, SPF female BALB/c inbred mice
Experimental: The experiments were carried out in vivo on mice. The septic shock was induced by an i.p. administration of a mixture of LPS (0.1 μg/mouse) and D-Galactosamine (18 mg/mouse).
The treatment schedule for r-hTBP-1 based on repeated administrations (the total dose was divided into 4 administrations given at time 0 and […] and 24 hours after), was adopted. CHO r-hTBP-1 was tested, alone or in combination with DHEA, at dose levels of 62.5 and 125 μg/mouse (total dose).
DHEA was tested both in a single administration injected i.p. one hour before and contemporaneously to the septic shock-inducing agent at doses encompassed between 100 and 2.000 μg/mouse and in repeated treatment with the total dose (250 μg/mouse) divided into 4 injections given within 24 hours.
The above treatment schedules of DHEA (doses from 250 to 1,500 μl g/mouse) were followed also in combination with r-hTBP-1 which was tested at the total dose varying from 62.5 to 125 μg/mouse (divided into 4 administrations).
SPF female BALB/c inbred mice, 6–8 weeks (about 18–20 g b.w.), from Charles River were used throughout the whole study after an acclimatisation period of at least 7 days.
Unless otherwise specified, in all the experiments the mice were randomly divided into groups of 10 animals each.
Both substances were dissolved in saline. The mixture of LPS (0.1 μg/mouse) and D-Galactosamine (18 mg/mouse) was prepared by mixing equal volumes of these substances. The mixture was subsequently injected to animals by the i.p. route. This dose was selected under precious experiments as that inducing around 80% mortality calculated as the number of dead vs. total number of mice for each croup. The lethality was monitored after 24, 48, 72 and 96 hours and at day 7 post-treatment.
The drug was diluted in saline and injected by repeated administrations, i.e. i.v. immediately before the inoculum of LPS plus D-Galactosamine and s.c. 3, 6 and 24 hours later.
The effects of DHEA, alone or in combination with r-hTBP-1, were assayed after single i.p. administrations at different times in respect to LPS+D-Galactosamine injection; in particular, it was administered 1 hour before and contemporaneously to the septic shock-inducing agent.
A repeated treatment schedule was also investigated in which DHEA was administered at time 0 (septic shock induction) and 3, 6 and 24 hours later. DHEA was initially vehicled in a mixture of 2.5% alcohol and 10% rabbit serum in saline. To improve the solubility and standardise the preparation, the steroid was successively dispersed in a mixture of 2.5% alcohol and 10% phospholipid emulsion in saline.
The primary end point was the survival rate at 48 hours after induction of septic shock. The comparison of the effects of each treatment group vs. controls and among treatment groups was effected by Fisher's exact test, one-tailed. The same comparison was also performed at the other time points. The results in each treatment group were expressed as percent survival.
In all the experiments, percent survival values were calculated using the survival Tables for the follow up studies (Armitage P. Cap. XIV. Tavole di sopravvivenza in Statistica Medica, Feltrinelli, Milano). The χ^2-test was applied to each observation time by comparing the DHEA+r-hTBP-1 groups to the other groups.

Molecule | in vivo protective effects (septic shock) | % cumulative survival ([1]; Table 2, r-hTBP-1 125 μg/mouse, time 0 (i.v.) and 3, 6, 24 hours (s.c.), 24 hrs) | % cumulative survival ([1]; Table 2, r-hTBP-1 125 μg/mouse, time 0 (i.v.) and 3, 6, 24 hours (s.c.), 48 hrs) | % cumulative survival ([1]; Table 2, r-hTBP-1 125 μg/mouse, time 0 (i.v.) and 3, 6, 24 hours (s.c.), 72 hrs) | % cumulative survival ([1]; Table 2, r-hTBP-1 125 μg/mouse, time 0 (i.v.) and 3, 6, 24 hours (s.c.), 96 hrs) | % cumulative survival ([1]; Table 4, r-hTBP-1 62.5 μg/mouse, time 0 (i.v.) and 3, 6, 24 hours (s.c.), 24 hr) | % cumulative survival ([1]; Table 4, r-hTBP-1 62.5 μg/mouse, time 0 (i.v.) and 3, 6, 24 hours (s.c.), 48 hr) | % cumulative survival ([1]; Table 4, r-hTBP-1 62.5 μg/mouse, time 0 (i.v.) and 3, 6, 24 hours (s.c.), 72 hr) | % cumulative survival ([1]; Table 4, r-hTBP-1 62.5 μg/mouse, time 0 (i.v.) and 3, 6, 24 hours (s.c.), 96 hr) | % cumulative survival ([1]; Table 5 group C, r-hTBP-1 62.5 μg, time 0 i.v. and 3, 6, 24 hours s.c., 24 hrs, 1st exp.) | % cumulative survival ([1]; Table 5 group C, r-hTBP-1 62.5 μg, time 0 i.v. and 3, 6, 24 hours s.c., 24 hrs, 2nd exp.) | % cumulative survival ([1]; Table 5 group C, r-hTBP-1 62.5 μg, time 0 i.v. and 3, 6, 24 hours s.c., 48 hrs, 1st exp.) | % cumulative survival ([1]; Table 5 group C, r-hTBP-1 62.5 μg, time 0 i.v. and 3, 6, 24 hours s.c., 48 hrs, 2nd exp.) | % cumulative survival ([1]; Table 5 group C, r-hTBP-1 62.5 μg, time 0 i.v. and 3, 6, 24 hours s.c., 72 hrs, 1st exp.) | % cumulative survival ([1]; Table 5 group C, r-hTBP-1 62.5 μg, time 0 i.v. and 3, 6, 24 hours s.c., 72 hrs, 2nd exp.) | % cumulative survival ([1]; Table 5 group C, r-hTBP-1 62.5 μg, time 0 i.v. and 3, 6, 24 hours s.c., 96 hrs, 1st exp.) | % cumulative survival ([1]; Table 5 group C, r-hTBP-1 62.5 μg, time 0 i.v. and 3, 6, 24 hours s.c., 96 hrs, 2nd exp.) | protection (survival) ([1]; r-hTBP-1 62.5 μg/mouse alone) | survival ([1]; r-hTBP-1 125 μg/mouse alone (suboptimal dose)) | survival ([1]; text (conclusions), r-hTBP-1 125 μg/mouse total dose alone)
TBP-1: urinary as well as recombinant TBP-1 (derived from both CHO and E. Coli cells), literature (protein, UniProt P19438 30-211, looked up, extracellular domain, urinary as well as recombinant TBP-1 (derived from both CHO and E. Coli cells), literature) extracellular domain: LVPHLGDREKRDSVCPQGKYIHPQNNSICCTKCHKGTYLYNDCPGPGQDTDCRECESGSFTASENHLRHCLSCSKCRKEMGQVEISSCTVDRDTVCGCRKNQYRHYWSENLFQCFNCSLCLNGTVHLSCQEKQNTVCTCHAGFFLRENECVSCSNCKKSLECTKLCLPQIENVKGTEDSGTT | protective effects | – | – | – | – | – | – | – | – | – | – | – | – | – | – | – | – | – | – | –
r-hTBP-1: CHO recombinant human TBP-1, the extracellular soluble domain of TNF-R1 (TNF Binding Protein-1) (protein, UniProt P19438 30-211, looked up, extracellular domain) extracellular domain: LVPHLGDREKRDSVCPQGKYIHPQNNSICCTKCHKGTYLYNDCPGPGQDTDCRECESGSFTASENHLRHCLSCSKCRKEMGQVEISSCTVDRDTVCGCRKNQYRHYWSENLFQCFNCSLCLNGTVHLSCQEKQNTVCTCHAGFFLRENECVSCSNCKKSLECTKLCLPQIENVKGTEDSGTT | – | 50% | 50% | 50% | 50% | 20% | 10% | 0% | 0% | 90^a % | 70^a % | 80^a % | 40% | 70^a % | 30% | 70^a % | 30% | 20% | about 50% | 50%
